Measurements taken from patent US20110086089A1, “USE OF P27KIP1 FOR THE PREVENTION AND TREATMENT OF HEART FAILURE” (UNIVERSITY HEALTH NETWORK, priority 2008, published 2011).
Marks after values point to notes of the source that are not given here.

B1: CK2-α′: recombinant active TAT-conjugated CK2-alpha-prime protein with NES of HIV-1 Rev (protein)
chain: MPGPAAGSRARVYAEVNSLRSREYWDYEAHVPSWGNQDDYQLVRKLGRGKYSEVFEAINITNNERVVVKILKPVKKKKIKREVKILENLRGGTNIIKLIDTVKDPVSKTPALVFEYINNTDFKQLYQILTDFDIRFYMYELLKALDYCHSKGIMHRDVKPHNVMIDHQQKKLRLIDWGLAEFYHPAQEYNVRVASRYFKGPELLVDYQMYDYSLDMWSLGCMLASMIFRREPFFHGQDNYDQLVRIAKVLGTEELYGYLKKYHIDLDPHFNDILGQHSRKRWENFIHSENRHLVSPEALDLLDKLLRYDHQQRLTAKEAMEHPYFYPVVKEQSQPCADNAVLSSGLTAAR
modifications: left off: small tags and cut ends
B2: p27ΔC: TAT-conjugated p27 deficient in binding to CK2-alpha-prime (p27.1-86), serving as negative control (protein)
chain: MSNVRVSNGSPSLERMDARQADHPKPSACRNLFGPVDHEELTRDLEKHCRDMEEASQRKWNFDFQNHKPLEGKYEWQEVEKGSLPE
modifications: left off: small tags and cut ends

Tests used:
[1] = test system: p27 phosphorylation at S83 and T187 in cardiomyocytes; experiment: p27 phosphorylation at S83 and T187 in Ang II-treated cardiomyocytes (Western blot); type: cell-based, rat; conditions: Ang II 4 h; lentiviruses 72 h; DMAT 20 μM pre-incubated 30 min; TAT-conjugated CK2-alpha-prime 2.5 μg/ml 1 h
Experimental: FIG. 2 is a series of graphs and blots showing Ang II triggers CK2-alpha-prime-dependent phosphorylation of p27 on S83 and T187 in cardiomyocytes. (A) p27 is a substrate of CK2-alpha-prime. […] In vitro kinase assays employing recombinant wt.p27 (1 μg) or phosphorylation site mutants of p27 as substrates were incubated with recombinant CK2-alpha-prime/beta (200 ng). Aliquots of the reaction mixtures were resolved on SDS-PAGE, electrotransferred to nitrocellulose membranes, and the amount of incorporated radioactive [^32P}-label into p27 was quantified with a PhosphorImager and ImageJ software. Individual membranes were probed with anti-CK2-alpha-prime, anti-p27 (input), or phosphorylation site specific antibodies to p27. […] Samples were resolved on SDS-PAGE, transferred to nitrocellulose-membranes, and the amount of incorporated radioactive label into histones was quantified with a PhosphorImager and ImageJ. The input amount of each CK2-alpha-prime and p27 protein used in the kinase reaction mixtures was monitored by immunoblot analysis employing anti-His. […] Biochemically fractionated extracts corresponding to 4×10^5 cells per lane were analyzed by immunoblotting employing antibodies as indicated on the left. […]

WT mice = experiment: Chronic Ang II infusion for 14 days with daily TAT.protein injection, WT mice; type: in vivo; conditions: for FS / LVEDD / LVEF / LVESD / PWD: WT, echocardiography at 14 days
Excerpt: FIG. 5 is a series of graphs, blots and cell stainings showing CK2-alpha-prime is important for Ang II action in vivo. […] Transduction of recombinant active CK2-alpha-prime evokes cardiac hypertrophy in the absence of Ang II. (A) Heart-weight corrected for body-weight (left panel) and Masson-stain of myocardial cross sections (right panel). Mean±s.e.m., n=6-8. #P<0.01 vs sham saline. *P<0.01 vs sham saline. Scale bar, 2 mm. (B) Cell size analysis of adult cardiac myocytes isolated from 8-weeks-old mice. One hundred cells from three different mice were analyzed per group. Mean±s.e.m. #P<0.01 vs sham saline. *P<0.01 vs sham saline. **P<0.01 vs Ang II. (c) Determination of ANF/BNP mRNA levels by qRT-PCR. Mean±s.e.m., n=6-8. *P<0.05 vs sham saline. **P<0.05 vs Ang II. #P<0.05 vs sham saline. (D) Visualization of ectopic TAT-conjugated p27deltaPi by indirect immunofluorescence microscopy employing anti-His tag antibodies. Scale bar, 200 μm. (E) Left ventricular extracts (2-3 mg) were subjected to anti-CK2-alpha-prime immunocomplex kinase assays employing histone H1 substrate. Aliquots of kinase reactions were subjected to immunoblotting using antibodies as indicated on the left (top and middle panel). Levels of endogenously expressed or transduced proteins in total left ventricular heart tissue samples (60 μg) were analyzed by immunoblotting (bottom panel). Experiments to (E) were done twice with similar results.
To define whether CK2-alpha-prime -directed p27 turnover plays a role in vivo, the inventors chronically infused Ang II^72 and intraperitoneally injected recombinant TAT-conjugated CK2-alpha-prime and p27 variants in WT and p27^−/− mice (FIG. 9). […] These mice had normal LVEDD and LVESD when compared to Ang II-infused littermates (Table 3). […] CK2-alpha-prime activity and p27 destabilization were similar to their non-transduced Ang II-treated siblings (FIG. 5E).
(§1) Spontaneously beating cardiomyocytes from heart ventricles of neonatal rats were cultured and subjected to treatment with angiotensin II (Ang II). DMAT (2-dimethylamino-4,5,6,7-tetrabromo-1H-benzimidazol), DMSO, lactacystin and LLM were obtained from Calbiochem. Ang II was purchased from Sigma. Animal usage was in accordance with approved institutional animal care guidelines. Age-matched male WI C57BL/6 and p27^−/− mice were used in this study. For results shown in FIGS. 1 to 9: Ang II was chronically infused subcutaneously by osmotic pumps (model 2000, Alzet) at a dose of 1.4 μg/kg per minute for 14 days. TAT.proteins (10 mg/kg) were injected intraperitoneally once daily for 14 days. For results shown in FIGS. 10 to 12: Ang II was chronically infused subcutaneously by osmotic pumps (model 2000, Alzet) at a dose of 0.7 μg/kg per minute for 16 days. TAT.proteins (20 mg/kg) were injected intraperitoneally once daily for 8 days starting at day 8. Thoracic aortic banding (TAB) and pressure gradient measurements were performed as described^39.

p27 KO mice = experiment: Chronic Ang II infusion for 14 days with daily TAT.protein injection, p27 KO mice; type: in vivo; conditions: p27 KO, echocardiography at 14 days
Experimental: (A) Heart-weight corrected for body-weight (left panel) and Masson-stain of myocardial cross sections (right panel). Mean±s.e.m., n=6-8. *P<0.01 vs sham saline. **P<0.01 vs Ang II. Scale bar, 2 mm. (B) Cell size analysis of adult cardiac myocytes isolated from 8-weeks-old mice. One hundred cells from three different mice were analyzed per group. Mean±s.e.m. *P<0.01 vs sham saline. **P<0.01 vs Ang II. (C) Determination of ANF/BNP mRNA levels by qRT-PCR. Mean±s.e.m., n=6-8. *P<0.01 vs sham saline. **P<0.01 vs Ang II. (D) CK2-alpha-prime-dependent kinase activity determined in whole left ventricular tissue samples. One typical result of two independent experiments is shown. (E, F) Ang II action induces apoptosis in p27^−/− mice. (E) Quantification of apoptotic cardiac myocytes (white arrowheads) by in situ TUNEL and GATA4 immunofluorescence histochemistry of left ventricular specimen. Mean±s.e.m., n=4. *P<0.01 vs sham saline. **P<0.05 vs sham saline. #P<0.01. (F) Determination of caspase 3 activity in total left ventricular heart tissue samples. Mean±s.e.m., n=4. *P<0.05 vs sham saline. #P<0.01. (G) Model for CK2-alpha-prime-dependent regulation of cardiac hypertrophy through phosphorylation of p27. Hypertrophic signals stimulate CK2-alpha-prime kinase that phosphorylates p27 at S83 and T187. Phosphorylation of p27 impairs its ability to bind to and inhibit […] activity. Subsequently, p27 is proteasomally degraded allowing hypertrophic growth to proceed.
Next, the inventors examined the effect of transduced proteins on cardiac hypertrophy in p27^−/− mice. Elimination of p27 gene function in these animals completely abrogated the ability of kd.CK2-alpha-prime to block cardiac hypertrophy (FIG. 6A-D). In contrast, hypertrophic responses to Ang II were abolished by p27deltaPi injections. Thus, reconstitution of p27 protein abundance in the myocardium of p27^−/− mice was accompanied by inhibition of Ang II action. Moreover, the inventors observed a marked increase in the number of TUNEL-positive cardiomyocyte nuclei in Ang II-infused p27^−/− mice (FIG. 6E,F) as compared to the WT controls. […] This was in direct contrast to the effect seen by ectopic kd.CK2-alpha-prime consistent with the inventors' previous work showing that CK2 is cardioprotective^73,74.
as §1

[2] = Ang infusion 1.4 μg/kg per minute 14 days, TAT.protein 10 mg/kg i.p. once daily
[3] = saline infusion, TAT.protein 10 mg/kg i.p. once daily 14 days
[4] = saline infusion, TAT.protein 10 mg/kg i.p. once daily 14 days, 8-weeks of age

Molecule	FS (WT mice; [2])	LVEDD (WT mice; [2])	LVEF (WT mice; [2])	LVESD (WT mice; [2])	PWD (WT mice; [2])	LVEDD (WT mice; [3])	LVEF (WT mice; [3])	LVESD (WT mice; [3])	PWD (WT mice; [3])	FS (WT mice; [4])	also measured
B1	55 ± 3.9* %	4.6 ± 0.1* mm	82 ± 2.8* %	2.4 ± 0.1* mm	1.3 ± 0.1* mm	4.5 ± 0.2^# mm	83 ± 3.1^# %	2.4 ± 0.2^# mm	1.3 ± 0.2^# mm	52 ± 2.0^# %	S83/T187 phosphorylation of p27 in cardiomyocytes [1]: rescued the detrimental impact of siCK2-alpha-prime on p27 phosphorylation; cardiac hypertrophy in the absence of Ang II (WT mice; WT mice, saline, TAT.protein 10 mg/kg i.p. once daily): did induce cardiac hypertrophy
B2	54 ± 3.2%	4.5 ± 0.2 mm	81 ± 3.5%	2.3 ± 0.1 mm	1.2 ± 0.2 mm	3.6 ± 0.2 mm	69 ± 2.1%	1.4 ± 0.1 mm	0.7 ± 0.1 mm	41 ± 1.8%	FS (p27 KO mice; [2]): 56 ± 3.9%; LVEDD (p27 KO mice; [2]): 4.6 ± 0.2 mm; LVEF (p27 KO mice; [2]): 82 ± 3.8%; LVESD (p27 KO mice; [2]): 2.3 ± 0.2 mm; PWD (p27 KO mice; [2]): 1.1 ± 0.1 mm; FS (p27 KO mice; [3]): 42 ± 2.4%; LVEDD (p27 KO mice; [3]): 3.7 ± 0.2 mm; LVEF (p27 KO mice; [3]): 73 ± 2.6%; LVESD (p27 KO mice; [3]): 1.3 ± 0.1 mm; PWD (p27 KO mice; [3]): 0.6 ± 0.2 mm; cardiac hypertrophy to Ang II (heart/body weight ratio, myocyte area, ANF/BNP mRNA) (WT mice; Ang II-treated WT mice, TAT.proteins 10 mg/kg i.p. once daily 14 days): No anti-hypertrophic effect
